Experimental data taken from paper PMC9544338.

What was measured:
Assay in all cases: co-IP; N2a cells cotransfected with His6-RGS19 and Gαo-GFP (C-terminally tagged) variants, treated with 1 μM ZPT for 3 hours before IP of Gαo with a nanobody against GFP; Western blot; fold against DMSO-treated cells
[1] = biological target: Gαo[E246K]-GFP (C-terminally tagged) (human), P09471; conditions: remark: other sources report otherwise
[2] = biological target: Gαo[G203R]-GFP (C-terminally tagged) (human), P09471
[3] = biological target: Gαo[R209C]-GFP (C-terminally tagged) (human), P09471; conditions: remark: other sources report otherwise

B1: His6-RGS19, P49795 1-217 (other documents disagree on this pair)
chain: MPTPHEAEKQITGPEEADRPPSMSSHDTASPAAPSRNPCCLCWCCCCSCSWNQERRRAWQASRESKLQPLPSCEVCATPSPEEVQSWAQSFDKLMHSPAGRSVFRAFLRTEYSEENMLFWLACEELKAEANQHVVDEKARLIYEDYVSILSPKEVSLDSRVREGINKKMQEPSAHTFDDAQLQIYTLMHRDSYPRFLSSPTYRALLLQGPSQSSSEA
fold increase of the interaction by ZPT over DMSO [1]: 12 fold
fold increase of the interaction by ZPT over DMSO [2]: 20 fold
fold increase of the interaction by ZPT over DMSO [3]: 6 fold
